pEC50, pIC50: −log10 of the molar value. Where two headings read alike, the source gives them in different places. Positions of bridges follow the written chain, without caps; N, C: chain ends. MBP = not defined here
Experiments:
Format in all cases: binding
[1] = target: T1, interaction between CTLA-4 and B7-1 (Homo sapiens, UniProt P16410); assay: CTLA-4:B7-1[Biotinylated] Inhibitor Screening Assay (BPS Bioscience kit)
T1 construct: purchased BPS Bioscience Inc
T1 sequence (P16410 36-161 limits assumed): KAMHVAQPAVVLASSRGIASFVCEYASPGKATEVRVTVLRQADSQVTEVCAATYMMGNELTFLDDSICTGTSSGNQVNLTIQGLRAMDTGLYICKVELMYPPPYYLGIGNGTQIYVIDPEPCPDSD
Description: We prepared the C4m-3127 cyclic peptide using chemical synthesis and examined its properties. First, the inhibitory activity was tested using a kit (CTLA-4:B7-1[Biotinylated] Inhibitor Screening Assay, BPS Bioscience Inc.) (Figure 5A). […] In a sequence of C4m-3127, the GG linker behind C-terminal Cys had mutated into Glu and Arg.
A cyclic peptide with a low EC50 value was synthesized by adding glycine to the N-terminus at Toray Research Center.
(B) Flow cytometry affinity analysis.

[2] = target: T2, CTLA-4 (Homo sapiens, UniProt P16410); assay: ELISA-based determination of EC50 value of MBP–peptide–His-tag fusion constructs
T2 sequence (P16410 36-223): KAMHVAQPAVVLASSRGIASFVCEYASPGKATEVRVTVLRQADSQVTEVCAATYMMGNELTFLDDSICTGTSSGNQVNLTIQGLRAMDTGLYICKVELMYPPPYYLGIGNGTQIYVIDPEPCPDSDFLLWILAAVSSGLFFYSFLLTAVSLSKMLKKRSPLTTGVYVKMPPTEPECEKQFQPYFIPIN
Description: Peptides with binding specificity for CTLA-4 were overexpressed as fusion proteins with MBP at the N-terminus and His-tag at the C-terminus. After BL21(DE3) E. coli cells were transformed, the fusion constructs were grown in 200 mL of 2xYT/[…] ampicillin at 37 °C until an OD600 of 0.5–0.8 was reached. Then, IPTG (0.5 mM) was added. The broth was incubated at 25 °C with shaking overnight. After the cell broth was centrifuged, the pellet was resuspended in 20 mM Tris-HCl pH 7.5/500 mM NaCl and sonicated (Bioruptor UCD-250, Sonicbio Co. Ltd., Kanagawa, Japan). The sample was centrifuged, then the supernatant was purified on Ni Sepharose^TM 6FF (Cytiva, Tokyo, Japan). The purified sample was buffer exchanged to PBS by dialysis and quantified using a kit (BCA Protein Assay Kit, Thermo Fisher Scientific, Waltham, MA, USA).
CTLA-4 (5 μg/mL) was coated onto a NUNC® Maxisoap^TM 384 well plate and incubated at 4 °C overnight. After the wells were washed twice with TBS/0.05% Tween-20, they were blocked with 100 μL of TBS/0.05% Tween-20/5% skim milk by incubating at RT for 1 h with shaking. […] The absorbance was measured at 450 nm/650 nm with a microplate reader (Infinite F200, Tecan Japan Co., Ltd., Kanagawa, Japan). The absorbance versus the concentration of MBP–peptide–His-tag fusion was found. The midpoint concentration was determined as the half-maximal effective concentration (EC50) value.

[3] = target: T2, CTLA-4; assay: E. coli lysate ELISA of MBP–peptide fusion proteins; settings: alanine mutants of C4m-310044 as MBP–peptide–His-tag fusion protein, compared with C4m-310044
From the text: We generated 14 alanine mutants as an MBP–peptide–His-tag fusion protein (Supplementary Figure S1A), and systematically investigated the effects of alanine substitution by lysate ELISA (Supplementary Figure S1B). […] These eight residues were regarded as important for the interaction between C4m-310044 peptide and CTLA-4. Of the eight residues, six (H2, P3, L5, S9, H11, and F12) were highly conserved even after affinity maturation of C4-302 (Figure 4). These six amino acids were essential residues for binding with CTLA-4. […] Neither of these two residues is involved in binding, but they seem to contribute to affinity. […]
(B) 14 variants shown in (A) were expressed as the MBP-peptide fusion protein. The binding activity of each on CTLA-4 was evaluated using lysate ELISA. The BL21(DE3) E. coli cells transformed with each alanine scanning mutant were grown in 100 μL of 2xYT/50 μg/mL ampicillin at 37 °C until OD600 of 0.5–0.8 was reached. After IPTG (0.5 mM) was added, the broth was incubated at 25 °C, with shaking overnight. The cell broth was lysed using lysis buffer (5 mg/mL lysozyme (FUJIFILM Wako) in PBS, 50% BugBuster ® (v/v) (Merck Millipore) at RT for 2 h, with shaking. The lysate was blocked with TBS/0.05% Tween-20/12.5% skim milk by incubating at RT for 0.5 h, shaking, then added to CTLA-4-immobilized wells on 384-plate and incubated at RT for 1.5 h. After washing and incubation with anti-FLAG M2 ®-peroxidase antibody (1:10,000; Sigma Aldrich) at RT for 1 h, the absorbance at 450 nm/ 650 nm was read with a microplate reader through the reaction with 1x TMB substrate solution and 2N

[4] = inhibition of CTLA-4:B7-1 interaction, luminescence, four-parameter logistic fit, read-out: IC50

CC(C)[C@H]1ON(C(=O)OCc2ccccc2)[C@H]2CN(CCc3ccccc3)C(=O)[C@H](Cc3c[nH]cn3)N2C1=O [PGF00432, Benzyl (3R,6S,9aS)-6-((1H-imidazol-4-yl)methyl)-3-isopropyl-4,7-dioxo-8-phenethylhexahydropyrazino [2,1-c][1,2,4]oxadiazine-1(6H)-carboxylate]
pIC50 [1, 4]: 3.53

CC(C)[C@H]1ON(C(=O)OCc2ccccc2)[C@H]2CN(CCc3ccccc3)C(=O)[C@H](CCCNC(=N)N)N2C1=O [PGF00452, Benzyl (3R,6S,9aS)-6-(3-guanidinopropyl)-3-isopropyl-4,7-dioxo-8-phenethylhexahydropyrazino [2,1-c][1,2,4]oxadiazine-1(6H)-carboxylate]
pIC50 [1, 4]: 3.83

N=C(N)NCCC[C@H]1C(=O)N(CCc2ccccc2)C[C@@H]2N(C(=O)OCc3ccccc3)O[C@H](CC3CCCCC3)C(=O)N21 [PGF00478, Benzyl (3R,6S,9aS)-3-(cyclohexylmethyl)-6-(3-guanidinopropyl)-4,7-dioxo-8-phenethylhexahydropyrazino [2,1-c][1,2,4]oxadiazine-1(6H)-carboxylate]
pIC50 [1, 4]: 4.10 | pIC50 ([1]; values printed in Figure 7, read-out: IC50, CTLA-4/B7-1 interaction inhibitory activity): 4.22

C4m-3127: best binder clone from affinity maturation of C4-302, random loop MHPFLPIVSHHF, expressed as MBP fusion protein ({MBP}-CMHPFLPIVSHHFCER-{His‑tag}; disulfide 1-14 (inferred); not fully specified; reading uncertain)
affinity relative to C4-302 ([2]; MBP fusion protein, times greater affinity than C4-302): 50 times | pEC50 ([2]; purified MBP–peptide–His-tag fusion protein, ELISA on immobilized CTLA-4): 7.13 | pIC50 ([1]; inhibition of CTLA-4:B7-1 interaction, luminescence, four-parameter logistic fit, listed as MBP–C4m-3127 peptide–His-tag fusion protein, read-out: IC50): 5.87 | pIC50 [1, 4]: 4.94

F4A: alanine mutant of C4m-310044 as MBP–peptide–His-tag fusion protein ({MBP}-CLHPALPIVSHHFCGR-{His‑tag}; disulfide 1-14 (inferred); reading uncertain)
absorbance in lysate ELISA [3]: same level of absorbance with C4m-310044

F12A: alanine mutant of C4m-310044 as MBP–peptide–His-tag fusion protein ({MBP}-CLHPFLPIVSHHACGR-{His‑tag}; disulfide 1-14 (inferred); reading uncertain)
absorbance in lysate ELISA [3]: marked decrease in absorbance

G(+1)A: alanine mutant of C4m-310044 as MBP–peptide–His-tag fusion protein ({MBP}-CLHPFLPIVSHHFCAR-{His‑tag}; disulfide 1-14 (inferred); reading uncertain)
absorbance in lysate ELISA [3]: same level of absorbance with C4m-310044

H2A: alanine mutant of C4m-310044 as MBP–peptide–His-tag fusion protein ({MBP}-CLAPFLPIVSHHFCGR-{His‑tag}; disulfide 1-14 (inferred); reading uncertain)
absorbance in lysate ELISA [3]: marked decrease in absorbance

H10A: alanine mutant of C4m-310044 as MBP–peptide–His-tag fusion protein ({MBP}-CLHPFLPIVSAHFCGR-{His‑tag}; disulfide 1-14 (inferred); reading uncertain)
absorbance in lysate ELISA [3]: same level of absorbance with C4m-310044

H11A: alanine mutant of C4m-310044 as MBP–peptide–His-tag fusion protein ({MBP}-CLHPFLPIVSHAFCGR-{His‑tag}; disulfide 1-14 (inferred); reading uncertain)
absorbance in lysate ELISA [3]: marked decrease in absorbance

I7A: alanine mutant of C4m-310044 as MBP–peptide–His-tag fusion protein ({MBP}-CLHPFLPAVSHHFCGR-{His‑tag}; disulfide 1-14 (inferred); reading uncertain)
absorbance in lysate ELISA [3]: marked decrease in absorbance

L1A: alanine mutant of C4m-310044 as MBP–peptide–His-tag fusion protein ({MBP}-CAHPFLPIVSHHFCGR-{His‑tag}; disulfide 1-14 (inferred); reading uncertain)
absorbance in lysate ELISA [3]: same level of absorbance with C4m-310044

L5A: alanine mutant of C4m-310044 as MBP–peptide–His-tag fusion protein ({MBP}-CLHPFAPIVSHHFCGR-{His‑tag}; disulfide 1-14 (inferred); reading uncertain)
absorbance in lysate ELISA [3]: marked decrease in absorbance

P3A: alanine mutant of C4m-310044 as MBP–peptide–His-tag fusion protein ({MBP}-CLHAFLPIVSHHFCGR-{His‑tag}; disulfide 1-14 (inferred); reading uncertain)
absorbance in lysate ELISA [3]: marked decrease in absorbance

P6A: alanine mutant of C4m-310044 as MBP–peptide–His-tag fusion protein ({MBP}-CLHPFLAIVSHHFCGR-{His‑tag}; disulfide 1-14 (inferred); reading uncertain)
absorbance in lysate ELISA [3]: marked decrease in absorbance

R(+2)A: alanine mutant of C4m-310044 as MBP–peptide–His-tag fusion protein ({MBP}-CLHPFLPIVSHHFCGA-{His‑tag}; disulfide 1-14 (inferred); reading uncertain)
absorbance in lysate ELISA [3]: same level of absorbance with C4m-310044

S9A: alanine mutant of C4m-310044 as MBP–peptide–His-tag fusion protein ({MBP}-CLHPFLPIVAHHFCGR-{His‑tag}; disulfide 1-14 (inferred); reading uncertain)
absorbance in lysate ELISA [3]: marked decrease in absorbance

V8A: alanine mutant of C4m-310044 as MBP–peptide–His-tag fusion protein ({MBP}-CLHPFLPIASHHFCGR-{His‑tag}; disulfide 1-14 (inferred); reading uncertain)
absorbance in lysate ELISA [3]: same level of absorbance with C4m-310044

— article PMC9784018, “Rational Strategy for Designing Peptidomimetic Small Molecules Based on Cyclic Peptides Targeting Protein–Protein Interaction between CTLA-4 and B7-1” (Pharmaceuticals, 2022)
